According to patent EP4349860A1 (Fundació Institut Hospital Del Mar D'Investigacions …, dated 2024):
Read-outs that look alike come from different tables or passages of the source.

Columns and labels:
[1] = target: T1, SARS-CoV-2 spike protein, Omicron BA.2 variant, on pseudovirus (SARS-CoV-2 (Omicron BA.2 variant)); assay: cell-based or functional assay
[2] = target: T2, SARS-CoV-2 spike protein, Delta (B.1.617.2) variant, on pseudovirus (SARS-CoV-2 (Delta variant)); assay: cell-based or functional assay
[3] = target: T3, SARS-CoV-2 spike protein, Beta (B.1.351) variant, on pseudovirus (SARS-CoV-2 (Beta variant)); assay: cell-based or functional assay
[4] = target: T4, SARS-CoV-2 spike protein, Alpha (B.1.1.7) variant, on pseudovirus (SARS-CoV-2 (Alpha variant)); assay: cell-based or functional assay
[5] = target: SARS-CoV-2 spike protein, Mu (B.1.621) variant, on pseudovirus (SARS-CoV-2 (Mu variant)); assay: cell-based or functional assay
[6] = target: T5, SARS-CoV-2 spike protein, Gamma (P.1) variant, on pseudovirus (SARS-CoV-2 (Gamma variant)); assay: cell-based or functional assay
[7] = target: T2, SARS-CoV-2 spike protein, Delta …; assay: cell-based or functional assay; remark: listed apart in the source
[8] = target: T3, SARS-CoV-2 spike protein, Beta …; assay: cell-based or functional assay; remark: listed apart in the source
[9] = target: T4, SARS-CoV-2 spike protein, Alpha …; assay: cell-based or functional assay; remark: listed apart in the source
[10] = target: T5, SARS-CoV-2 spike protein, Gamma (P.1) …; assay: cell-based or functional assay; remark: listed apart in the source
[11] = target: T1, SARS-CoV-2 spike protein, Omicron BA.2 …; assay: cell-based or functional assay; remark: listed apart in the source
[12] = target: SARS-CoV-2 spike protein, Omicron BA.4/BA.5 variants, on pseudovirus (SARS-CoV-2 (Omicron BA.4/BA.5 variants)); assay: cell-based or functional assay
[13] = target: T6, RBD of the SARS-CoV-2 spike protein, Beta (B.1.351) variant (SARS-CoV-2 (Beta variant), UniProt P0DTC2 319-541); assay: ELISA, plate coated with RBD at 2 µg/ml, anti-human IgG-HRP detection
T6 construct: domain: RBD

[14] = target: T7, RBD of the SARS-CoV-2 spike protein, Delta (B.1.617.2) variant (SARS-CoV-2 (Delta variant), UniProt P0DTC2 319-541); assay: as above
T7 construct: domain: RBD

[15] = target: T8, RBD of the SARS-CoV-2 spike protein, Gamma (P.1) variant (SARS-CoV-2 (Gamma variant), UniProt P0DTC2 319-541); assay: as above
T8 construct: domain: RBD

B1: mAb17T2 (antibody, V domains shown)
VH: QVQLVQSGPEVKKPGTSVKVSCKAPVFTFSISAVQWVRQARGQRLEWIGWIVVGSGNTNYAQNFQERVTITTDMSTGTVYMELSGLRSEDTAMYYCAAPYCNRTTCYDGFDLWGQGTMVTVSS
VL: EIVLTQSPGTLSLSPGERATLSCRASQSISSNYLAWYQQKPGQAPRLLIYGASSRATGIPDRFSGSGSGTDFTLSINRLEPEDFAMYYCQHYGGLSRWTFGQGTKVEIKR
fold neutralizing activity compared to S2E12 [1]: 13.5 fold | fold neutralizing activity compared to S309 [1]: 41 fold | IC50 (µg/ml), pseudotyped virus neutralization [2]: 0.0105 µg/mL | IC80 (µg/ml), pseudotyped virus neutralization [2]: 0.0165 µg/mL | IC90 (µg/ml), pseudotyped virus neutralization [2]: 0.0215 µg/mL | IC50 (µg/ml), pseudotyped virus neutralization [3]: 0.0022 µg/mL | IC80 (µg/ml), pseudotyped virus neutralization [3]: 0.00481 µg/mL | IC90 (µg/ml), pseudotyped virus neutralization [3]: 0.0076 µg/mL | IC50 (µg/ml), pseudotyped virus neutralization [4]: 0.00666 µg/mL | IC80 (µg/ml), pseudotyped virus neutralization [4]: 0.014 µg/mL | IC90 (µg/ml), pseudotyped virus neutralization [4]: 0.0216 µg/mL | IC50 (µg/ml), pseudotyped virus neutralization [5]: 0.00907 µg/mL | IC80 (µg/ml), pseudotyped virus neutralization [5]: 0.014 µg/mL | IC90 (µg/ml), pseudotyped virus neutralization [5]: 0.0181 µg/mL | IC50 (µg/ml), pseudotyped virus neutralization [6]: 0.0126 µg/mL | IC80 (µg/ml), pseudotyped virus neutralization [6]: 0.0218 µg/mL | IC90 (µg/ml), pseudotyped virus neutralization [6]: 0.0302 µg/mL | IC50 (µg/ml), pseudotyped virus neutralization [7]: 0.0096 µg/mL | IC50 (µg/ml), pseudotyped virus neutralization [8]: 0.0027 µg/mL | IC50 (µg/ml), pseudotyped virus neutralization [9]: 0.0069 µg/mL | IC50 (µg/ml), pseudotyped virus neutralization [10]: 0.0083 µg/mL | IC50 (µg/ml), pseudotyped virus neutralization [11]: 0.0101 µg/mL | IC50 (µg/ml), pseudotyped virus neutralization [12]: 0.00203 µg/mL | EC50 [13]: 3.76 ng/mL | EC50 [14]: 3.38 ng/mL | EC50 [15]: 3.08 ng/mL
